Test [1] addresses T1, Glutathione S-transferase (GST)-tagged AITR (human, UniProt Q9Y5U5 26-139).
T1 construct: also called GST-AITR antigen; GST-AITR analyte; not shown: Glutathione S-transferase (GST) tag
T1 sequence (looked up): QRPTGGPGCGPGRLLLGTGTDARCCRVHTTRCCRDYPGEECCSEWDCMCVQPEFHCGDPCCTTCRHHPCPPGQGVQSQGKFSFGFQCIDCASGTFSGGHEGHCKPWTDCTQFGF
Description: SPR, Fab against the AITR antigen.

The target of test [2] is T1, Glutathione S-transferase (GST)-tagged …. Description: SPR, Fab against the AITR antigen; ratio against parental IRTCA-A.
The target is the same in test [3]. Description: KD ratio against parental IRTCA-A, repeated from the SPR of Table 3.
The target is the same in test [4]. The description is as above. The source holds these as a separate data set.
Test [5] has the same target. The test is described as above. The source holds these as a separate data set.
Another test addresses T2, R12 AA 75-139.
T2 construct: also called GST fusion protein construct R12 (AITR deletion mutant)
T2 GST fusion protein: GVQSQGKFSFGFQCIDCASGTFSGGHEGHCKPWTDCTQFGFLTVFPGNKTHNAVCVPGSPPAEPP
Description: Western blot and ELISA on GST-AITR deletion constructs. On the procedure: Binding of the anti-AITR antibodies IRTCA-A (A27), H1F1, H1F1M69 and H1F1M74 to the GST-fusion proteins R1-R12 was assessed using Western blot analysis, in which the GST-fusion proteins were resolved by 12% SDS-PAGE and subjected to immunoblotting using the antibodies IRTCA-A, H1F1, H1F1M69 and H1F1M74. Anti-Human IgG-HRP (1:5000; Jackson Laboratories, Bar Harbor, Me.) was used as the secondary antibody. Detection of chemiluminescence was obtained by using SuperSignal West Pico Chemiluminescent Substrate (Pierce, Rockford, Ill.).

The target in test [6] is T1, Glutathione S-transferase (GST)-tagged …. Description: SPR (Biacore T200), antibody captured by anti-human IgG(Fc), GST-AITR analyte 3.12-100 nM. The protocol: This example assesses the ability of mutant anti-AITR antibodies to bind to an AITR antigen recognized by the parent antibody, H1F1. Surface plasmon resonance was used in order to determine the ability of mutant anti-AITR antibodies to bind to AITR.
A Biacore T200 with a CMS sensor chip was run using HBS-EP running buffer at pH 7.4 and 3M magnesium chloride regeneration buffer. Anti-human IgG(Fc) antibodies were immobilized to the CMS chip via amine coupling and 6 minute injections at a flow rate of 5 μL/minute were performed with an immobilization buffer of 10 mM sodium acetate at pH 5.0. The capture antibodies tested were parent antibody H1F1 and mutant antibodies M69 and M74. Glutathione S-transferase (GST)-tagged AITR analyte was injected at concentrations of 3.12, 6.25, 12.5, 25, 50 and 100 nM, with an association time of 150 seconds and a dissociation time of 240 seconds.

The target of test [7] is T3, human AITR expressed on the cell surface (human, UniProt Q9Y5U5 26-241).
T3 sequence (looked up): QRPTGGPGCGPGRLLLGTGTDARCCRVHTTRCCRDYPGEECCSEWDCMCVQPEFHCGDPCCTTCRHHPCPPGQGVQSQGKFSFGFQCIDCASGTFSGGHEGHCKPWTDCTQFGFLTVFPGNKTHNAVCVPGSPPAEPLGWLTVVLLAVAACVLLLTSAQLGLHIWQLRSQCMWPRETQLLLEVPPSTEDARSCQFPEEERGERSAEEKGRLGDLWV
Description: cell-based or functional assay.

B1: Parental IRTCA-A Fab (Fab, V domains shown)
VH: QVQLVQSGTQVKMPGASVKVSCKASGYTFDDYGIGWVRQAPGQGLEWMGWISPYTHRTNSSPKLQDRVTMTTDTSTSTAYMELRSLRSDDTAVYYCARDGTYYDFWSGYFDNGAFDIWGQGTLVTVSS
VL: QSVVTQPPSVSAAPGQKVTISCSGSTSNIGNNYVSWYQQLPGTAPKLLIYDNYKRPSGIPDRFSGSKSGTSATLGITGLRTGDEADYFCGTWDSSLNAWVFGGGTKLTVL
In test [1], B1 returned a Ka of 8.74e+06 M⁻¹, a Kd of 114 nM, a koff of 0.00134 s⁻¹ and a kon of 11700 M⁻¹ s⁻¹. Moreover, the “KD Ratio” value in test [2] was 1 fold. The “KD Ratio” value in test [3] was determined as 1 fold. Further, in test [4], the “KD Ratio” value was determined as 1 fold. Moreover, in test [5], the “KD Ratio” value is 1 fold.

B2: IRTCA-A (A27) anti-AITR monoclonal antibody (antibody, V domains shown)
VH: QVQLVQSGTQVKMPGASVKVSCKASGYTFDDYGIGWVRQAPGQGLEWMGWISPYTHRTNSSPKLQDRVTMTTDTSTSTAYMELRSLRSDDTAVYYCARDGTYYDFWSGYFDNGAFDIWGQGTLVTVSS
VL: QSVVTQPPSVSAAPGQKVTISCSGSTSNIGNNYVSWYQQLPGTAPKLLIYDNYKRPSGIPDRFSGSKSGTSATLGITGLRTGDEADYFCGTWDSSLNAWVFGGGTKLTVL
notes: Monoclonal antibody form, detected with anti-human IgG-HRP; constant regions not specified for this antibody
In the case of B2, the binding result with R12 AA 75-139 is “no binding”.

B3: H1F1.M69 (H1F1.H2.J1/H1F1.L3.J1) (antibody, V domains shown)
VH: QVQLVQSGAQVKMPGESLKVSCKASGYTFTDYGMGWVRQAPGQGLEWMGWISPYTGRTNSSDKFQGRVTMTRDTSTSTAYMELRSLRSEDTAVYYCARDGTYYDFWSGYFDNNAFDIWGQGTLVTVSS
VL: QSVVTQPPSVSGAPGQRVTISCSGSTSNIGNNYVSWYQQLPGTAPKLLIYDNYKRPSGVPDRFSGSKSGTSASLAITGLQTEDEADYYCGTWDSSLNAWVFGGGTKLTVL
notes: Made in Expi293 cells from HC and LC DNA
As for B3, the binding result with R12 AA 75-139 was “no binding”. In test [6], this molecule returned a dissociation constant Kd of 0.657 nM.

B4: IRTCA-A10 (Clone H1A10) Fab (Fab, V domains shown)
VH: QVQLVQSGTQVKMPGASVKVSCKASGYTFDDYGIGWVRQAPGQGLEWMGWISPYTHRTNSSPKLQDRVTMTTDTSTSTAYMELRSLRSDDTAVYYCARDGTYYDFWSGYFDNAAFDSWGQGTLVTVSS
VL: QSVVTQPPSVSAAPGQKVTISCSGSTSNIGNNYVSWYQQLPGTAPKLLIYDNYKRPSGIPDRFSGSKSGTSATLGITGLRTGDEADYFCGTWDSSLNAWVFGGGTKLTVL
In test [1], B4 had a Ka of 7.34e+07 M⁻¹, an equilibrium dissociation constant (Kd) of 13.6 nM, a koff of 0.000565 s⁻¹ and a kon of 41500 M⁻¹ s⁻¹. Moreover, the “KD Ratio” value in test [2] stood at 8.38 fold. In addition, the “KD Ratio” value in test [3] came to 8.4 fold. Moreover, the “KD Ratio” value in test [4] was 8.4 fold. For the same molecule, in test [5], the “KD Ratio” value is 8.4 fold.

B5: IRTCA-A1 (Clone L1E9) Fab (Fab, V domains shown)
VH: QVQLVQSGTQVKMPGASVKVSCKASGYTFDDYGIGWVRQAPGQGLEWMGWISPYTHRTNSSPKLQDRVTMTTDTSTSTAYMELRSLRSDDTAVYYCARDGTYYDFWSGYFDNGAFDIWGQGTLVTVSS
VL: QSVVTQPPSVSAAPGQKVTISCSGSTSNIGNNYVSWYQQLPGTAPKLLIYDNYKRPSGIPDRFSGSKSGTSATLGITGLRTGDEADYFCGSWESGSNAYKFGGGTKLTVL
In test [1], B5 had a Ka of 7.18e+07 M⁻¹, a Kd of 13.9 nM, a koff of 0.000412 s⁻¹ and a kon of 29600 M⁻¹ s⁻¹. Also, the “KD Ratio” value in test [2] turned out to be 8.2 fold. The “KD Ratio” value in test [3] amounted to 8.2 fold. Further, the “KD Ratio” value in test [4] was 8.2 fold. In test [5], the “KD Ratio” value stood at 8.2 fold.

B6: H1F1 anti-AITR monoclonal antibody (antibody, V domains shown)
VH: QVQLVQSGTQVKMPGASVKVSCKASGYTFDDYGIGWVRQAPGQGLEWMGWISPYTHRTNSSPKLQDRVTMTTDTSTSTAYMELRSLRSDDTAVYYCARDGTYYDFWSGYFDNNAFDIWGQGTLVTVSS
VL: QSVVTQPPSVSAAPGQKVTISCSGSTSNIGNNYVSWYQQLPGTAPKLLIYDNYKRPSGIPDRFSGSKSGTSATLGITGLRTGDEADYFCGTWDSSLNAWVFGGGTKLTVL
notes: Bivalent antibody captured by anti-human IgG(Fc); constant regions not specified for this antibody; also called parent antibody H1F1
As for B6, the binding result with R12 AA 75-139 was “no binding”. In test [6], this molecule returned a dissociation constant Kd of 0.789 nM.

B7: IRTCA-A14 (Clone H2F8) Fab (Fab, V domains shown)
VH: QVQLVQSGTQVKMPGASVKVSCKASGYTFDDYGIGWVRQAPGQGLEWMGWISPYTHRTNSSPKLQDRVTMTTDTSTSTAYMELRSLRSDDTAVYYCARDGTYYDFWSGYFDTAAFDIWGQGTLVTVSS
VL: QSVVTQPPSVSAAPGQKVTISCSGSTSNIGNNYVSWYQQLPGTAPKLLIYDNYKRPSGIPDRFSGSKSGTSATLGITGLRTGDEADYFCGTWDSSLNAWVFGGGTKLTVL
B7: the “secretion of IFN-γ by CD4+ T cells at 0.5 µg, against IRTCA-A” value (shortened to “secretion of IFN-γ by CD4+ T cells”) in test [7] is ≥ 200%. The molecule also displayed a Ka in test [1] of 2.64e+08 M⁻¹. This molecule also yielded a Kd in test [1] of 3.79 nM. Also, the koff in test [1] is 0.00027 s⁻¹. This molecule also came in with a kon in test [1] of 71100 M⁻¹ s⁻¹. Moreover, the “KD Ratio” value in test [2], in test [3], in test [4] and in test [5] was 30.1 fold throughout.

B8: IRTCA-A15 (Clone H1F1) Fab (Fab, V domains shown)
VH: QVQLVQSGTQVKMPGASVKVSCKASGYTFDDYGIGWVRQAPGQGLEWMGWISPYTHRTNSSPKLQDRVTMTTDTSTSTAYMELRSLRSDDTAVYYCARDGTYYDFWSGYFDNNAFDIWGQGTLVTVSS
VL: QSVVTQPPSVSAAPGQKVTISCSGSTSNIGNNYVSWYQQLPGTAPKLLIYDNYKRPSGIPDRFSGSKSGTSATLGITGLRTGDEADYFCGTWDSSLNAWVFGGGTKLTVL
Consider B8, for which the “secretion of IFN-γ by CD4+ T cells” value in test [7] is ≥ 200%. In test [1], the Ka turned out to be 3.9e+08 M⁻¹, the dissociation constant Kd was 2.57 nM, the koff came out at 0.000334 s⁻¹ and the kon was 130000 M⁻¹ s⁻¹. Also, the “KD Ratio” value in test [2] was 44.4 fold. Besides, in test [3], the “KD Ratio” value was found to be 44.4 fold. In addition, the “KD Ratio” value in test [4] turned out to be 44.4 fold. For the same molecule, the “KD Ratio” value in test [5] turned out to be 44.4 fold.

B9: IRTCA-A12 (Clone H2A10) Fab (Fab, V domains shown)
VH: QVQLVQSGTQVKMPGASVKVSCKASGYTFDDYGIGWVRQAPGQGLEWMGWISPYTHRTNSSPKLQDRVTMTTDTSTSTAYMELRSLRSDDTAVYYCARDGTYYDFWSGYFDNATFDFWGQGTLVTVSS
VL: QSVVTQPPSVSAAPGQKVTISCSGSTSNIGNNYVSWYQQLPGTAPKLLIYDNYKRPSGIPDRFSGSKSGTSATLGITGLRTGDEADYFCGTWDSSLNAWVFGGGTKLTVL
With B9, the “secretion of IFN-γ by CD4+ T cells” value in test [7] was ≥ 200%. In test [1], this molecule returned a Ka of 2.42e+08 M⁻¹, a Kd of 4.13 nM, an off-rate (koff) of 0.000288 s⁻¹ and an on-rate constant (kon) of 69700 M⁻¹ s⁻¹. The “KD Ratio” value in test [2] was 27.6 fold. In addition, the “KD Ratio” value in test [3] amounted to 27.6 fold. Moreover, the “KD Ratio” value in test [4] turned out to be 27.6 fold. Also, in test [5], the “KD Ratio” value stood at 27.6 fold.

B10: H1F1.M74 (H1F1.H8/H1F1.L3.J2) (antibody, V domains shown)
VH: QVQLVQSGAQVKMPGESLKVSCKASGYTFDDYGMGWVRQAPGQCLEWMGWISPYTGRTNSSDKFQGRVTMTRDTSTSTAYMELRSLRSEDTAVYYCARDGTYYDFWSGYFDNNAFDIWGQGTLVTVSS
VL: QSVVTQPPSVSGAPGQRVTISCSGSTSNIGNNYVSWYQQLPGTAPKLLIYDNYKRPSGVPDRFSGSKSGTSASLAITGLQSEDEADYYCGSWESGSNAYKFGGGTKLTVL
notes: as for B3
As for B10, the equilibrium dissociation constant (Kd) in test [6] was 0.966 nM.
